Measurements taken from patent publication US20190002527A1 (CHILDREN S MEDICAL CENTER, published 2019).

Experiments:
[1] = biological target: T1, β1-integrin (human, UniProt P05556 21-798); assay: co-IP from transfected HEK293T cells, IP anti-β1-integrin, blot anti-HA
T1 construct: Endogenous β1-integrin in lysates of human HUVE or HEK293T cells; No signal peptide limits are stated; also called B1-integrin; ITGB1
Excerpt: (§1) FIG. 2A depicts a schematic representation of TRPV4. […] The right panel gives the Western blotting for the expression of each transgene in total cell lysates of respective transfectants.

[2] = biological target: T2, TRPV4 (transient receptor potential vanilloid 4) (human, UniProt Q9HBA0 1-871); assay: co-IP from transfected HEK293T cells, IP anti-TRPV4, blot anti-HA
T2 construct: Endogenous TRPV4 in lysates of human HUVE or HEK293T cells, co-immunoprecipitation; also called TRPV4 membrane ion channel
Excerpt: as §1

[3] = biological target: T3, CD98 (cluster of differentiation 98) (human, UniProt Q01650 1-507); assay: co-IP from transfected HEK293T cells, IP anti-CD98, blot anti-myc
T3 construct: Endogenous CD98 in lysates of human HUVE or HEK293T cells; also called LAT1; transmembrane amino acid transporter CD98
Excerpt: as §1

T1 sequence (P05556 21-798 limits assumed): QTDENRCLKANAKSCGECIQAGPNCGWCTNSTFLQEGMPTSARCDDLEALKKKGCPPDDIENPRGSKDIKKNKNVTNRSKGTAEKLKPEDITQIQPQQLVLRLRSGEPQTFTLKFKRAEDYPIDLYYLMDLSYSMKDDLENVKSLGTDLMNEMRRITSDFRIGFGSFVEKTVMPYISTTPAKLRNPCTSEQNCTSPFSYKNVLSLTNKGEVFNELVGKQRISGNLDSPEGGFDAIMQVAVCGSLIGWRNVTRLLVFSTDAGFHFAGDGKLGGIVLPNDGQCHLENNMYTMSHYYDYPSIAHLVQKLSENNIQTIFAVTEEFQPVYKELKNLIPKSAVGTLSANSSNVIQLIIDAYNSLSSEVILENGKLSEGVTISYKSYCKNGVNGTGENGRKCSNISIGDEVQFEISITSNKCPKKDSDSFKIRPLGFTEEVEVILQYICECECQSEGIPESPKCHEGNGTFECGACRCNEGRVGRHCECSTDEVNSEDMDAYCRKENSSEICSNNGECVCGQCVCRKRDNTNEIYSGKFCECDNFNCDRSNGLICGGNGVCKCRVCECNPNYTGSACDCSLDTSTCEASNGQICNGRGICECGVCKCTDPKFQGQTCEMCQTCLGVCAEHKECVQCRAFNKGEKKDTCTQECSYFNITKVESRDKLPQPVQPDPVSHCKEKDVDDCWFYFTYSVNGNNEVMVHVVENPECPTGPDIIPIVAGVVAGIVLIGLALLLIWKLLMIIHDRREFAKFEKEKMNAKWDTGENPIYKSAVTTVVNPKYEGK
T3 sequence (Q01650 whole entry): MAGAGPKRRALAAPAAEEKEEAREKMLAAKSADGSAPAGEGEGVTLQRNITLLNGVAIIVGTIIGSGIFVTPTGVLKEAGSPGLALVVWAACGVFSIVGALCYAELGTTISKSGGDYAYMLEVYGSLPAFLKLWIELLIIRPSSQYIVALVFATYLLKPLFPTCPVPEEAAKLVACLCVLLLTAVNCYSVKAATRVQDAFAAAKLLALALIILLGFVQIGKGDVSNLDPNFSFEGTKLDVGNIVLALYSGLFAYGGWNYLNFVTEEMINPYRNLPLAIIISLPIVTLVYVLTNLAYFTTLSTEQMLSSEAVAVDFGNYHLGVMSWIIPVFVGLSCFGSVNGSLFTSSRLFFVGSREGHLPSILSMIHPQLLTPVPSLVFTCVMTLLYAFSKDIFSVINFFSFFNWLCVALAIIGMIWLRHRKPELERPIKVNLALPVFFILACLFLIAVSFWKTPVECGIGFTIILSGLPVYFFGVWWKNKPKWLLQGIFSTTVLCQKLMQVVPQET

Row | binding result [1] | binding result [2] | binding result [3] | Binder
1 | no binding | no binding |  | HA-linked CD98 that lacks high homology domain (ΔHH) (other, Built from 'deletion of a 50 amino acid (160-210aa) high homology domain'; also called CD98 lacking the high homology domain; not shown: HA tag) MELQPPEASIAVVSIPRQLPGSHSEAGVQGLSAGDDSETGSDCVTQAGLQLLASSDPPALASKNAEVTVETGFHHVSQADIEFLTSIDPTASASGSAGITGTMSQDTEVDMKEVELNELEPEKQPMNAASGAAMSLAGAEKNGLVKIKVAEDEAEAAAACRELPAQKWWHTGALYRIGDLQAFQGHGAGNLAGLKGRLDYLSSLKVKGLVLGPIHKNQKDDVAQTDLLQIDPNFGSKEDFDSLLQSAKKKSIRVILDLTPNYRGENSWFSTQVDTVATKVKDALEFWLQAGVDGFQVRDIENLKDASSFLAEWQNITKGFSEDRLLIAGTNSSDLQQILSLLESNKDLLLTSSYLSDSGSTGEHTKSLVTQYLNATGNRWCSWSLSQARLLTSFLPAQLLRLYQLMLFTLPGTPVFSYGDEIGLDAAALPGQPMEAPVMLWDESSFPDIPGAVSANMTVKGQSEDPGSLLSLFRRLSDQRSKERSLLHGDFHAFSAGPGLFSYIRHWDQNERFLVVLNFGDVGLSAGLQASDLPASASLPAKADLLLSTQPGREEGSPLELERLKLEPHEGLLLRFPYAA
2 |  |  | no binding | myc-linked TRPV4 lacking all ankyrin repeat domains (ΔAR1-3) (other, also called TRPV4 lacking all three ankyrin repeat domains; not shown: myc tag) MADSSEGPRAGPGEVAELPGDESGTPGGEAFPLSSLANLFEGEDGSLSPSPADASRPAGPGDGRPNLRMKFQGAFRKGVPNPIDLLESTLYESSVVPGPKKAPMDSLFDYGTYRHHSSDNKRWRKKIIEKQPQSPKAPAPQPPPILKVFNRPILFDIVSRGSTADLDGLLPFLLTHKKRLTDEEFREPSTGKTCLPKALLNLSNGRNDTIPVLLDIAERTGNMREFINSPFRDIYYQARGRFFQPKDEGGYFYMRRQDSRGNTVLHALVAIADNTRENTKFVTKMYDLLLLKCARLFPDSNLEAVLNNTRHLSRKFKDWAYGPVYSSLYDLSSLDTCGEEASVLEILVYNSKIENRHEMLAVEPINELLRDKWRKFGAVSFYINVVSYLCAMVIFTLTAYYQPLEGTPPYPYRTTVDYLRLAGEVITLFTGVLFFFTNIKDLFMKKCPGVNSLFIDGSFQLLYFIYSVLVIVSAALYLAGIEAYLAVMVFALVLGWMNALYFTRGLKLTGTYSIMIQKILFKDLFRFLLVYLLFMIGYASALVSLLNPCANMKVCNEDQTNCTVPTYPSCRDSETFSTFLLDLFKLTIGMGDLEMLSSTKYPVVFIILLVTYIILTFVLLLNMLIALMGETVGQVSKESKHIWKLQWATTILDIERSFPVFLRKAFRSGEMVTVGKSSDGTPDRRWCFRVDEVNWSHWNQNLGIINEDPGKNETYQYYGFSHTVGRLRRDRWSSVVPRVVELNKNSNPDEVVVPLDSMGNPRCDGHQQGYPRKWRTDDAPL
